Measurements reported in patent publication CN116963747A (UNIV TEXAS, dated 2023).

B1: TRAF2 (other, human, UniProt Q12933 2-501, looked up)
chain: AAASVTPPGSLELLQPGFSKTLLGTKLEAKYLCSACRNVLRRPFQAQCGHRYCSFCLASILSSGPQNCAACVHEGIYEEGISILESSSAFPDNAARREVESLPAVCPSDGCTWKGTLKEYESCHEGRCPLMLTECPACKGLVRLGEKERHLEHECPERSLSCRHCRAPCCGADVKAHHEVCPKFPLTCDGCGKKKIPREKFQDHVKTCGKCRVPCRFHAIGCLETVEGEKQQEHEVQWLREHLAMLLSSVLEAKPLLGDQSHAGSELLQRCESLEKKTATFENIVCVLNREVERVAMTAEACSRQHRLDQDKIEALSSKVQQLERSIGLKDLAMADLEQKVLEMEASTYDGVFIWKISDFARKRQEAVAGRIPAIFSPAFYTSRYGYKMCLRIYLNGDGTGRGTHLSLFFVVMKGPNDALLRWPFNQKVTLMLLDQNNREHVIDAFRPDVTSSSFQRPVNDMNIASGCPLFCPVSKMEAKNSYVRDDAIFIKAIVDLTGL
notes: also called 内源TRAF2
B2: B3ICDhFc (LILRB3胞内结构域, C末端与hFc融合) (Fc fusion, human, UniProt O75022 465-631, looked up)
chain: RRQRHSKHRTSDQRKTDFQRPAGAAETEPKDRGLLRRSSPAADVQEENLYAAVKDTQSEDRVELDSQSPHDEDPQAVTYAPVKHSSPRREMASPPSSLSGEFLDTKDRQVEEDRQMDTEAAASEASQDVTYAQLHSLTLRRKATEPPPSQEGEPPAEPSIYATLAIH
notes: domain: 胞内结构域; Purified for the in vitro pull-down with GST-TRAF2; not shown: human Fc (hFc) fused at the C-terminus
B3: HA-TRAF2 (other, human, UniProt Q12933 1-501, looked up)
chain: MAAASVTPPGSLELLQPGFSKTLLGTKLEAKYLCSACRNVLRRPFQAQCGHRYCSFCLASILSSGPQNCAACVHEGIYEEGISILESSSAFPDNAARREVESLPAVCPSDGCTWKGTLKEYESCHEGRCPLMLTECPACKGLVRLGEKERHLEHECPERSLSCRHCRAPCCGADVKAHHEVCPKFPLTCDGCGKKKIPREKFQDHVKTCGKCRVPCRFHAIGCLETVEGEKQQEHEVQWLREHLAMLLSSVLEAKPLLGDQSHAGSELLQRCESLEKKTATFENIVCVLNREVERVAMTAEACSRQHRLDQDKIEALSSKVQQLERSIGLKDLAMADLEQKVLEMEASTYDGVFIWKISDFARKRQEAVAGRIPAIFSPAFYTSRYGYKMCLRIYLNGDGTGRGTHLSLFFVVMKGPNDALLRWPFNQKVTLMLLDQNNREHVIDAFRPDVTSSSFQRPVNDMNIASGCPLFCPVSKMEAKNSYVRDDAIFIKAIVDLTGL
notes: also called 外源HA-TRAF2; not shown: HA tag
B4: SHP-1 (enzyme)
chain: not shown
notes: also called 内源性SHP-1; 外源SHP-1

How the values were obtained:
[1] = biological target: T1, LILRB3 (白细胞免疫球蛋白样受体亚家族B成员3), full length (human, UniProt O75022 24-631); experiment: co-IP from primary M5 AML cells with human anti-LILRB3 antibody
T1 construct: whole, on cells; also called B3-FL; 全长LILRB3

[2] = biological target: T2, LILRB3-hFc (全长LILRB3, C末端hFc标签) (human, UniProt O75022 24-631); experiment: co-IP of endogenous TRAF2 with LILRB3-hFc in THP-1 cells, with LPS or PBS
T2 construct: whole, on cells; also called hFc加标签的B3-FL; not shown: human Fc (hFc) fused at the C-terminus in the pFLAG-CMV5.1 vector

HA-TRAF2 = biological target: B3; experiment: co-IP in 293T cells with or without FLAG-A20N (Fig 6j)
FLAG-cFLIP = FLAG-cFLIP (human, UniProt O15519 1-480); experiment: co-IP in 293T cells
FLAG-cFLIP, sequence (O15519 whole entry, the tested form may be a part): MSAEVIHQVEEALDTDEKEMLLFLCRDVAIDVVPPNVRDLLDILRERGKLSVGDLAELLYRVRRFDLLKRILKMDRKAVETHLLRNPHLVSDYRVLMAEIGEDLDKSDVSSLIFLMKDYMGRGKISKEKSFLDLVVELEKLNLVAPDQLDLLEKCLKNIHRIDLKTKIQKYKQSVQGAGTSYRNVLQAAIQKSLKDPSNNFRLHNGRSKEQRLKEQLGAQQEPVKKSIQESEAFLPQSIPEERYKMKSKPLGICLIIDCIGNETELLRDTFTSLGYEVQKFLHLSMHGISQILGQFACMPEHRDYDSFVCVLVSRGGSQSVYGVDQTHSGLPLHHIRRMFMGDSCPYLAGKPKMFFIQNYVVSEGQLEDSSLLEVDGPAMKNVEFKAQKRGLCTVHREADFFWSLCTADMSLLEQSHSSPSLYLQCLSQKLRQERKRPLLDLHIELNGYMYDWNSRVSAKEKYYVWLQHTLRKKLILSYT

[3] = biological target: T2, LILRB3-hFc (全长LILRB3, C末端hFc标签); experiment: co-IP of HA-TRAF2 with hFc-fused LILRBs in 293T cells
LILRB3 QEE509-511AAA突变体 = biological target: T3, LILRB3 QEE509-511AAA突变体 (human, UniProt O75022 24-631); experiment: co-IP in 293T cells
T3 construct: It is probably hFc-fused like the other LILRB3 constructs; also called B3AAA

氨基酸505-515缺失的LILRB3 = 氨基酸505-515缺失的LILRB3 (human, UniProt O75022 24-631); experiment: co-IP in 293T cells
[4] = biological target: T2, LILRB3-hFc (全长LILRB3, C末端hFc标签); experiment: co-IP in THP-1 cells stably expressing LILRB3-hFc

Binder: B1
- binding result [1]: binds
- binding result [2]: binds

Binder: B2
- binding result (HA-TRAF2): binds
- binding result (FLAG-cFLIP): no binding

Binder: B3
- binding result [3]: binds
- binding result (LILRB3 QEE509-511AAA突变体): no binding
- binding result (氨基酸505-515缺失的LILRB3): no binding

Binder: B4
- binding result [4]: binds
